Data set [1] has as its target Smc5/6 hexamer (Smc5, Smc6, Nse1, Nse2, Nse3, Nse4) (Saccharomyces cerevisiae) (UniProt Q08204+Q12749+Q07913+P38632+Q05541+P43124). In words: fluorescence anisotropy. As to conditions: ATPase buffer: 10 mM Hepes-KOH pH 7.5, 150 mM K-OAc, 2 mM MgCl2, 20% glycerol; anisotropy at 25 C; plasmid pulldown bound at room temperature, high-salt buffer ….
In data set [2] the target is Smc5/6 octamer (hexamer plus Nse5/6) (Saccharomyces cerevisiae, UniProt Q08204;Q12749;Q07913;P38632;Q05541;P43124;Q03718;P40026 …). As to the kind of experiment: fluorescence anisotropy. The settings on record: ATPase buffer: 10 mM Hepes-KOH pH 7.5, 150 mM K-OAc, 2 mM MgCl2, 20% glycerol; anisotropy at 25 C; plasmid pulldown bound at room temperature, high-salt buffer …. A general note: In fluorescence polarisation assays a small probe gives low polarisation when free and higher when bound to something large.

Data set [3] addresses T1, Smc6 (Twin-Strep-tag removed, as in the octamer for lysine cross-linking) (S. cerevisiae, UniProt Q12749 1-1114).
T1 construct: Smc6, S. cerevisiae; subunit of the octamer used for XL-MS; source: E. coli (DE3) Rosetta, purified as part of the hexamer; tag removed by HRV-3C before SEC of the octamer; not shown: Twin-Strep (after a 3C site), C-terminal, cleaved
T1 sequence (looked up): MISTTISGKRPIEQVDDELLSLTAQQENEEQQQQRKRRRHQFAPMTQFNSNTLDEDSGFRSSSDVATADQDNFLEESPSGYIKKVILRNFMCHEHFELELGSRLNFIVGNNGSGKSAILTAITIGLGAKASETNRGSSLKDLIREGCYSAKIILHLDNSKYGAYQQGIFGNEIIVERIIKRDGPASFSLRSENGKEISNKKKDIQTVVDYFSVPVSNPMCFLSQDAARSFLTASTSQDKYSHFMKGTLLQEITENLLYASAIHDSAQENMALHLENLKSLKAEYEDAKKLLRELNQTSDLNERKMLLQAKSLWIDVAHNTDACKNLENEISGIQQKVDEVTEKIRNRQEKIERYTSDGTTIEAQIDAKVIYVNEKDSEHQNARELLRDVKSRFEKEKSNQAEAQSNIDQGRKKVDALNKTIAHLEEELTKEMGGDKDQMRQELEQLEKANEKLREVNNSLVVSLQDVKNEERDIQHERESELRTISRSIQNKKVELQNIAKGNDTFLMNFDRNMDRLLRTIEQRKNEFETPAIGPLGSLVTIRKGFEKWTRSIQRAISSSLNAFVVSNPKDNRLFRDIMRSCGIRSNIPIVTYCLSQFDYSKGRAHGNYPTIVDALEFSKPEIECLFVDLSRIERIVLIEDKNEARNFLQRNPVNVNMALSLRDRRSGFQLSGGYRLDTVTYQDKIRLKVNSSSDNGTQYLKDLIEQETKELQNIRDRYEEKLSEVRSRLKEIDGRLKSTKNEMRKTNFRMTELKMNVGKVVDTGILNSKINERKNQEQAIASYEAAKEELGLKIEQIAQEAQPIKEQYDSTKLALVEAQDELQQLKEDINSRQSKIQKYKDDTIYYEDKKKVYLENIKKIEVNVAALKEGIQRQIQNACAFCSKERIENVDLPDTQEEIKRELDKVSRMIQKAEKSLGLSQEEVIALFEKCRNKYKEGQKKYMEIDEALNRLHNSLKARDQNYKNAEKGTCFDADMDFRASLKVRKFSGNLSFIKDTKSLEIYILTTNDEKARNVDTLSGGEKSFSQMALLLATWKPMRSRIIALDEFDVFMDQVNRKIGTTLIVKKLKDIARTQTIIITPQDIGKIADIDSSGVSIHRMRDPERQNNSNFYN
In words: cross-linking; XL-MS with the lysine-reactive PhoX (0.25 mM, 20 min, RT) on the reconstituted octamer, 1.6 µM; salt buffer 20 mM Hepes-KOH pH 7.5, 250 mM NaCl. As to conditions: both partners purified.

In another data set the target is T2, Nse1/3/4 sub-complex (S. cerevisiae, UniProt Q07913 1-336; Q05541 1-303; P43124 1-402).
T2 construct: Nse1, S. cerevisiae; Nse3, S. cerevisiae; Nse4, S. cerevisiae; used where the text names only the module as the partner of a cross-link and not which subunit; also called Nse1/3/4 module; Nse4/3/1 module; source: E. coli (DE3) Rosetta, purified as part of the hexamer and octamer; copies: + +
T2 sequence (looked up) 1: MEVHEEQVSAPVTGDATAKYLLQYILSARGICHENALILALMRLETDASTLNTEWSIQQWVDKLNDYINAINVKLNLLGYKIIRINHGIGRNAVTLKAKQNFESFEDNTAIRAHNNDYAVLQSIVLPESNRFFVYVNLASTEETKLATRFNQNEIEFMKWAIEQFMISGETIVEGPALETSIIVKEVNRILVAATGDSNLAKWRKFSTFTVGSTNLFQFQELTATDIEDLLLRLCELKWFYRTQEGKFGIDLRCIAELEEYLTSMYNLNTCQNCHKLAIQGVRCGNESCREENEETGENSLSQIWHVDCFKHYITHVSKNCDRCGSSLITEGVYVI
T2 sequence (looked up) 2: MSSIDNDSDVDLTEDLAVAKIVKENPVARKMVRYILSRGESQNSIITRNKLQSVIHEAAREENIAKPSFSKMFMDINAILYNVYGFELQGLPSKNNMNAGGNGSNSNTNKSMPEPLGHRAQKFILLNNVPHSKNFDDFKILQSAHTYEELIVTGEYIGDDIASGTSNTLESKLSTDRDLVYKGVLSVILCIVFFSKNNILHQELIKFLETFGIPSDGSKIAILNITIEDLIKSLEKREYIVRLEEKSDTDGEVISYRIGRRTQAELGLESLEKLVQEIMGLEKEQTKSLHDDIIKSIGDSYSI
T2 sequence (looked up) 3: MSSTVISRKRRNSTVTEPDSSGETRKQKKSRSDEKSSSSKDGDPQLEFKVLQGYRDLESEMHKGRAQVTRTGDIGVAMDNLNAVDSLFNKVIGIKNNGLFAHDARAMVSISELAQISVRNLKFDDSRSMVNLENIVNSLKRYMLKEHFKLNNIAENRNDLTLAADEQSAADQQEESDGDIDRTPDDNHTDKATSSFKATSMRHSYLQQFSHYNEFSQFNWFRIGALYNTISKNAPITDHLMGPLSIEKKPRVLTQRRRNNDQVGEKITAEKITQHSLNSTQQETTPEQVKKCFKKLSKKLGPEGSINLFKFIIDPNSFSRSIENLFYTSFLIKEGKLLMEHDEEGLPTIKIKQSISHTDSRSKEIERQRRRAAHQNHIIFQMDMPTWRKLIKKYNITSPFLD
Described as above. The settings on record: both partners purified.

In data set [4] the target is T1, Smc6 (Twin-Strep-tag removed, as in the …). In words: cross-linking; XL-MS with PhoX (0.25 mM, 20 min, RT) on the octamer, 1.6 µM; ATPase buffer (10 mM Hepes-KOH pH 7.5, 150 mM potassium acetate, 2 mM MgCl2, 20% glycerol); without and with 2 mM ATP and 16 nM plasmid DNA; wild-type and Smc5(EQ)/Smc6(EQ) octamers. The settings on record: both partners purified.

Smc5/6 octamer (hexamer plus Nse5/6), sequence (P40026 whole entry, one chain of several): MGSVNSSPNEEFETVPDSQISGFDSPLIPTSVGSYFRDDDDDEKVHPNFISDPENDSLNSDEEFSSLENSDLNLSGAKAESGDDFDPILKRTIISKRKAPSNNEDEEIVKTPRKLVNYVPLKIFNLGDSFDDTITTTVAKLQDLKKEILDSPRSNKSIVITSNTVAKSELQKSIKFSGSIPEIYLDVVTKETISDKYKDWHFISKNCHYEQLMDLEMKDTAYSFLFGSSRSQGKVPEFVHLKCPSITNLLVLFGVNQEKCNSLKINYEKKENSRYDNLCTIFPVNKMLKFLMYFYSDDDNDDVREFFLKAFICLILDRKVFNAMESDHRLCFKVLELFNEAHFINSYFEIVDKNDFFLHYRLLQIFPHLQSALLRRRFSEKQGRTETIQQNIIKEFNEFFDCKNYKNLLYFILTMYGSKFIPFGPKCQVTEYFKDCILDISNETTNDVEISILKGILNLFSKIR

As a reminder, the Kd is the free concentration of one partner at which half of the binding sites on the other are occupied at equilibrium, for simple one-to-one binding. As for 40-mer ssDNA, the figures for the Kd in data set [1] and in data set [2] were 150 nM and 100 nM, respectively.

B1: Nse5-AviTag (from Nse5-AviTag-3C-Twin-Strep, Twin-Strep removed) (natural protein, S. cerevisiae, UniProt Q03718 1-556, looked up)
chain: MDGALINSVLYVSPRNGAHYFVELTEKHLLAFEMLNSMCLLENYDHVLLFLECQFGKSHNLAVIPFDIILVLFTLSTLSEYYKEPILRANDPYNTSRETLSRRALKLLQKYLAILKEFDSEQYNLYDLELLRCQFFLAIDTLTPKKQKWGFDRFRRTKSESGVTYRQNASVDPELDQAKTFKNPYRSYISCLEQRNTILGNRLLNLKLNEPGEFINMILWTLSNSLQESTPLFLSSHEIWMPLLEILIDLFSCRQDYFIQHEVAQNVSKSLFVQRLSESPLAVFFESLNTRNFANRFSEYVFLNCDYKLPSDNYATPVHPVYNGENTIVDTYIPTIKCSPLYKSQKSLALRRKLIGSCFKLLLRVPDGHRLITPRIVADDVIQGISRTLASFNDILQFKKFFMTENLSQESYFIPLLAEGTLSEILKDTQECVVILTLVENLSDGVSFCNEVIGLVKSKCFAFTEQCSQASYEEAVLNIEKCDVCLLVLLRYLLHLIGTEAILDAKEQLEMLHAIEKNDSGRRQWAKALNLGNDPPLLYPIVSQMFGVHDKSVIIE
notes: Nse5, S. cerevisiae, full length; subunit of the octamer used for XL-MS; the AviTag lies before the 3C site and should remain; source: E. coli (DE3) Rosetta, co-expressed with Nse6, purified (StrepTrap, heparin, SEC); Twin-Strep removed by HRV-3C; not shown: Twin-Strep (after a 3C site), C-terminal, cleaved
B1: the binding result (in data set [3]; with Nse1/3/4 sub-complex) was “binds” in each case.

B2: Nse4 (natural protein, S. cerevisiae, UniProt P43124 1-402, looked up)
chain: T2 sequence (looked up) 3
notes: Nse4, S. cerevisiae; also called kleisin Nse4; source: E. coli (DE3) Rosetta, co-expressed with the other subunits of the hexamer, purified as part of the complex
On to B2, for which the binding result in data set [4] was “binds”.

B3: Smc5 (natural protein, S. cerevisiae, UniProt Q08204 1-1093, looked up)
chain: MTSLIDLGRYVERTHHGEDTEPRSKRVKIAKPDLSSFQPGSIIKIRLQDFVTYTLTEFNLSPSLNMIIGPNGSGKSTFVCAVCLGLAGKPEYIGRSKKVEDFIKNGQDVSKIEITLKNSPNVTDIEYIDARDETIKITRIITRSKRRSDYLINDYQVSESVVKTLVAQLNIQLDNLCQFLSQERVEEFARLKSVKLLVETIRSIDASLLDVLDELRELQGNEQSLQKDLDFKKAKIVHLRQESDKLRKSVESLRDFQNKKGEIELHSQLLPYVKVKDHKEKLNIYKEEYERAKANLRAILKDKKPFANTKKTLENQVEELTEKCSLKTDEFLKAKEKINEIFEKLNTIRDEVIKKKNQNEYYRGRTKKLQATIISTKEDFLRSQEILAQTHLPEKSVFEDIDIKRKEIINKEGEIRDLISEIDAKANAINHEMRSIQRQAESKTKSLTTTDKIGILNQDQDLKEVRDAVLMVREHPEMKDKILEPPIMTVSAINAQFAAYLAQCVDYNTSKALTVVDSDSYKLFANPILDKFKVNLRELSSADTTPPVPAETVRDLGFEGYLSDFITGDKRVMKMLCQTSKIHTIPVSRRELTPAQIKKLITPRPNGKILFKRIIHGNRLVDIKQSAYGSKQVFPTDVSIKQTNFYQGSIMSNEQKIRIENEIINLKNEYNDRKSTLDALSNQKSGYRHELSELASKNDDINREAHQLNEIRKKYTMRKSTIETLREKLDQLKREARKDVSQKIKDIDDQIQQLLLKQRHLLSKMASSMKSLKNCQKELISTQILQFEAQNMDVSMNDVIGFFNEREADLKSQYEDKKKFVKEMRDTPEFQSWMREIRSYDQDTKEKLNKVAEKYEEEGNFNLSFVQDVLDKLESEIAMVNHDESAVTILDQVTAELRELEHTVPQQSKDLETIKAKLKEDHAVLEPKLDDIVSKISARFARLFNNVGSAGAVRLEKPKDYAEWKIEIMVKFRDNAPLKKLDSHTQSGGERAVSTVLYMIALQEFTSAPFRVVDEINQGMDSRNERIVHKAMVENACAENTSQYFLITPKLLTGLHYHEKMRIHCVMAGSWIPNPSEDPKMIHFGETSNYSFD
notes: Smc5, S. cerevisiae; stood in the assays as a subunit of the hexamer or octamer; source: E. coli (DE3) Rosetta, co-expressed with the other subunits of the hexamer, purified as part of the complex
As for B3, the binding result in data set [3] was “binds”.

B4: Nse3 (natural protein, S. cerevisiae, UniProt Q05541 1-303, looked up)
chain: T2 sequence (looked up) 2
notes: Nse3, S. cerevisiae; source: E. coli (DE3) Rosetta, co-expressed with the other subunits of the hexamer, purified as part of the complex
As for B4, the binding result in data set [4] is “binds”.

B5: Nse2 (natural protein, S. cerevisiae, UniProt P38632 1-267, looked up)
chain: MALNDNPIPKSVPLHPKSGKYFHNLHARDLSNIYQQCYKQIDETINQLVDSTSPSTIGIEEQVADITSTYKLLSTYESESNSFDEHIKDLKKNFKQSSDACPQIDLSTWDKYRTGELTAPKLSELYLNMPTPEPATMVNNTDTLKILKVLPYIWNDPTCVIPDLQNPADEDDLQIEGGKIELTCPITCKPYEAPLISRKCNHVFDRDGIQNYLQGYTTRDCPQAACSQVVSMRDFVRDPIMELRCKIAKMKESQEQDKRSSQAIDVL
notes: Nse2, S. cerevisiae; source: E. coli (DE3) Rosetta, co-expressed with the other subunits of the hexamer, purified as part of the complex
Turning to B5, the binding result in data set [4] is recorded as “binds”.

The record behind these values is article PMC8327961, “Nse5/6 inhibits the Smc5/6 ATPase and modulates DNA substrate binding” (The EMBO Journal, 2021).
